From publication PMC11790958

Target: condensin I tetramer lacking NCAPG (CIΔG) (Homo sapiens, UniProt O95347;Q9NTJ3;Q15003;Q15021 1-1197;1-1288;1-741;1-1401)
Assay: EMSA; 2.5 mM Mg2+; EMSA: 50 nM DNA, 20 mM HEPES pH 8, 150 mM KCl, 2.5 mM MgCl2, 10% glycerol, 1 mM DTT, on ice 20 min; 2% agarose, 0.5x TB
Conditions: protein: recombinant; tags: Strep; copies: 1;1;1;1; label: 5' Cy5 on reverse strand (S2); blunt

condensin I tetramer lacking NCAPG (CIΔG), sequence (O95347 whole entry, stated change not applied, chain 1 of 4): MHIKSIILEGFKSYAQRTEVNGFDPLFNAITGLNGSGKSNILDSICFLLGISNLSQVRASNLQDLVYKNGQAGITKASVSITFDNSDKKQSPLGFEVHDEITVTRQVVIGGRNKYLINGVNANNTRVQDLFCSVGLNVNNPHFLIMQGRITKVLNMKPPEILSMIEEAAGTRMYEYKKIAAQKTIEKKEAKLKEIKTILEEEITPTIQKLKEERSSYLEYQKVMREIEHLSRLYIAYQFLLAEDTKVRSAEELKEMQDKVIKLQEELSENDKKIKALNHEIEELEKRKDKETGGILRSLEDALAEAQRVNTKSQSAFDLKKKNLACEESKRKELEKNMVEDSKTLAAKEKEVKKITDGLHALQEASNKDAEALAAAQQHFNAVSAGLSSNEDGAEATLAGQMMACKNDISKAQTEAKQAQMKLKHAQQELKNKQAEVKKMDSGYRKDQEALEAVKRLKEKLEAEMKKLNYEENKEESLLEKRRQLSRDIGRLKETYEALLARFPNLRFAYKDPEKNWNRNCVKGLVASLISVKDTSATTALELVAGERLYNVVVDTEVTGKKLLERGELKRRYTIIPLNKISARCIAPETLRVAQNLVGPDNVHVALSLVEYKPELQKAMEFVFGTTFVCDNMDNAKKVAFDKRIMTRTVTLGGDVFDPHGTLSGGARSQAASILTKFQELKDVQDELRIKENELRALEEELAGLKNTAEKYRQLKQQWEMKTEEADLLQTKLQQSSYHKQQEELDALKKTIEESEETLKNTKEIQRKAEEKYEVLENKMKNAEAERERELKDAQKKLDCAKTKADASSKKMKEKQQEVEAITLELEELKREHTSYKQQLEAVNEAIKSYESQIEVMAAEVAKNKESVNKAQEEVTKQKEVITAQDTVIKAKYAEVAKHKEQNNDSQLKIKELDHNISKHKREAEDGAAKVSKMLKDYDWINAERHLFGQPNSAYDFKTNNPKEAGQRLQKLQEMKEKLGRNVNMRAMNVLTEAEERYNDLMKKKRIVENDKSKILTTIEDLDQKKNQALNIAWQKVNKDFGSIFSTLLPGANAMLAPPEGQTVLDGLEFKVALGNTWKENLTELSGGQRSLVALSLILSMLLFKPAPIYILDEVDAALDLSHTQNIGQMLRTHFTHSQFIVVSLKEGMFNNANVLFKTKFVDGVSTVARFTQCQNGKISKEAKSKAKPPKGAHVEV
condensin I tetramer lacking NCAPG (CIΔG), sequence (Q9NTJ3 whole entry, stated change not applied, chain 2 of 4): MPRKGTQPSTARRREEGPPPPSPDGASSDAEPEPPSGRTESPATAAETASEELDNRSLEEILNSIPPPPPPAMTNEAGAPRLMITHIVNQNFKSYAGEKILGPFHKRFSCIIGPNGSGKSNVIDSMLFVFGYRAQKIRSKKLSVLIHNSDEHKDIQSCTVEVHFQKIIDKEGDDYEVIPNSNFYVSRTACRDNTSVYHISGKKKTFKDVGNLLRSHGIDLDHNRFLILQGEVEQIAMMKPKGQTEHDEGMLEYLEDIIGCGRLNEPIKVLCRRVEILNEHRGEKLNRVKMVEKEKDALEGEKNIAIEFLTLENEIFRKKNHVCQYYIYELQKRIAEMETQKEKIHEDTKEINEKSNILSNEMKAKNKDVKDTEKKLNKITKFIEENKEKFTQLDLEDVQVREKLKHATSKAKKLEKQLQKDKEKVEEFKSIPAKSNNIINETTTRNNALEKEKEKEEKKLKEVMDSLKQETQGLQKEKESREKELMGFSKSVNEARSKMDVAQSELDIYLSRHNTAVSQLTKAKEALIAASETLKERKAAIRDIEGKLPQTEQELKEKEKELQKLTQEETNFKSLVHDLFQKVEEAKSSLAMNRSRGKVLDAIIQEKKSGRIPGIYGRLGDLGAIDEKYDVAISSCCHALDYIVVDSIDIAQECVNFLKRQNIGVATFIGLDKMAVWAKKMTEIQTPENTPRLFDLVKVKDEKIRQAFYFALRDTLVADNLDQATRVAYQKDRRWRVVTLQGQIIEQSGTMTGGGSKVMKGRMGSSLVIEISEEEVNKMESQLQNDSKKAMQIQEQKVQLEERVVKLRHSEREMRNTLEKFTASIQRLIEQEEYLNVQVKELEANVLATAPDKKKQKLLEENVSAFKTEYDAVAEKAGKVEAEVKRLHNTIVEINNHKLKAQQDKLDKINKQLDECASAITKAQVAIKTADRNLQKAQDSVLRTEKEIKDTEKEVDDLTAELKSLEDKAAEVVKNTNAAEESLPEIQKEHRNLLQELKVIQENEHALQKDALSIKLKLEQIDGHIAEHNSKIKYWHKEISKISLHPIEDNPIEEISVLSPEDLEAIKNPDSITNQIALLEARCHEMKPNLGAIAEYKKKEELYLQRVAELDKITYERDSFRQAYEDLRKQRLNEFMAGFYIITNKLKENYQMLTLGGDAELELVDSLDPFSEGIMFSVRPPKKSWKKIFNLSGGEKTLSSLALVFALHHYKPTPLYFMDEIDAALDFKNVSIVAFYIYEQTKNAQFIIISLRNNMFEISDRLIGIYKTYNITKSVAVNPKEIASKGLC
condensin I tetramer lacking NCAPG (CIΔG), sequence (Q15003 whole entry, stated change not applied, chain 3 of 4): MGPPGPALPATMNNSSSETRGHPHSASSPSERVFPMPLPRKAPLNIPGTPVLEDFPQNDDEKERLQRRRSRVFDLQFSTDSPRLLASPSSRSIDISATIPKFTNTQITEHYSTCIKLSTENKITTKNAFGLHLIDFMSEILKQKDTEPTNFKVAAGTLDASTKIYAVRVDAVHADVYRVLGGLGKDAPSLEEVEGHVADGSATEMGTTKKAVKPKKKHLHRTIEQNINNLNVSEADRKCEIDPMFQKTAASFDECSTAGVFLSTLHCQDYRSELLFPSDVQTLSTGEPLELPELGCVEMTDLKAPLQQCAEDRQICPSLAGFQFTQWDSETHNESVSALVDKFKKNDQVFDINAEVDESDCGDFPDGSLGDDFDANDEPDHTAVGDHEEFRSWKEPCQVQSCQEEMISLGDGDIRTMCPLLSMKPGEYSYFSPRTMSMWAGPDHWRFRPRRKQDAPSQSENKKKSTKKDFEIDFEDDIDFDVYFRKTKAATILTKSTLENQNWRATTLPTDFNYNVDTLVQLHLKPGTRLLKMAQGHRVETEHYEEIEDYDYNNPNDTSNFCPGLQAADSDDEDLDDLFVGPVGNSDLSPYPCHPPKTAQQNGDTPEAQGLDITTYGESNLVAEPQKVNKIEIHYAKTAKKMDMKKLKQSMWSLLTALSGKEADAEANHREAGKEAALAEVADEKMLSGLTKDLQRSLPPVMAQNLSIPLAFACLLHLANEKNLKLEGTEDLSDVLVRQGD
condensin I tetramer lacking NCAPG (CIΔG), sequence (Q15021 whole entry, stated change not applied, chain 4 of 4): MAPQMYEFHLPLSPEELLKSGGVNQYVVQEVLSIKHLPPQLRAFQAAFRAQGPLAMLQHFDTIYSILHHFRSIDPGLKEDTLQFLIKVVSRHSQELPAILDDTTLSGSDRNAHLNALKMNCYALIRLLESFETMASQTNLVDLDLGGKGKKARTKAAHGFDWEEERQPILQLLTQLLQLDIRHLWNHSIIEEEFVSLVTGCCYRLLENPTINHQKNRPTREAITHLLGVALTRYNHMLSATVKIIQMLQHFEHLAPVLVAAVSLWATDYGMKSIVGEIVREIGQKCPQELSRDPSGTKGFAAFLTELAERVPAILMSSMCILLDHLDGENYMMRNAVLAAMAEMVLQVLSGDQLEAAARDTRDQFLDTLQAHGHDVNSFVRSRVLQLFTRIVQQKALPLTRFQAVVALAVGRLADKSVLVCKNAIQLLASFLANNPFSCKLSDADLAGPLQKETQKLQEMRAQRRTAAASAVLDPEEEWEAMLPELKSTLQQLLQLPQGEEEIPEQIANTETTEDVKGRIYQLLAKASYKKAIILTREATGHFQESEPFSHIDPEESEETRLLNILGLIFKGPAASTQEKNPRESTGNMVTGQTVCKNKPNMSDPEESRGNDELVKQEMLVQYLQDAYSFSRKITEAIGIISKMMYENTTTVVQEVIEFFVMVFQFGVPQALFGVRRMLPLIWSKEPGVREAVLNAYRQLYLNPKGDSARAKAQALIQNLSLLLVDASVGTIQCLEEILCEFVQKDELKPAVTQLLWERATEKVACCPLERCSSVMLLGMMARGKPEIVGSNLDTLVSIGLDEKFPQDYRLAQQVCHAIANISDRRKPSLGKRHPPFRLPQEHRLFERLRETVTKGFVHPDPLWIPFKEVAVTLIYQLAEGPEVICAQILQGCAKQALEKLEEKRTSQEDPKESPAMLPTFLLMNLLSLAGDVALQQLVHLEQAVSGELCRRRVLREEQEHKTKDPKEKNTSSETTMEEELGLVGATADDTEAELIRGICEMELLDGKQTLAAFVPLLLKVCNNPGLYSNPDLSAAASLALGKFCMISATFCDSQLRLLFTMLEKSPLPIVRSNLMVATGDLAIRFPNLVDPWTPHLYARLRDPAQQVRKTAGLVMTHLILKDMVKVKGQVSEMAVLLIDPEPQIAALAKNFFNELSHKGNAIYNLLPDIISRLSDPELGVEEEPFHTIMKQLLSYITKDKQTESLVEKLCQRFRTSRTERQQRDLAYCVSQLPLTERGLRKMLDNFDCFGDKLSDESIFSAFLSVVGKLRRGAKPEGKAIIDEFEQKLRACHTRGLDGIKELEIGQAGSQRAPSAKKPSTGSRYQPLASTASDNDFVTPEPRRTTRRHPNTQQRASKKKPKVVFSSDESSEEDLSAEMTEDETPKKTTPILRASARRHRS

B1: Cy5 50 bp dsDNA (dsDNA)
DNA 1: GGTGTGACAGGGTGTGACAGGGTGTGACAGGGTGTGACAGGGTGTGACAG
DNA 2: CTGTCACACCCTGTCACACCCTGTCACACCCTGTCACACCCTGTCACACC
binding signal: ~4 fold lower affinity than CI
